Patent US7790384B2, “HIP1 cancer markers” (The Regents of the University of Michigan, priority 2001, dated 2010)

B1: FLHIP1: wild type full length HIP1 expressed in cells (protein)
chain: MDRMASSMKQVPNPLPKVLSRRGVGAGLEAAERESFERTQTVSINKAINTQEVAVKEKHARTCILGTHHEKGAQTFWSVVNRLPLSSNAVLCWKFCHVFHKLLRDGHPNVLKDSLRYRNELSDMSRMWGYLSEGYGQLCSIYLKLLRTKMEYHTKNPRFPGNLQMSDRQLDEAGESDVNNFSQLTVEMFDYLECELNLFQTVFNSLDMSRSVSVTAAGQCRLAPLIQVILDCSHLYDYTVKLLFKLHSCLPADTLQGHRDRFMEQFTKLKDLFYRSSNLQYFKRLIQIPQLPENPPNFLRASALSEHISPVVVIPAEASSPDSEPVLEKDDLMDMDASQQNLFDNKFDDIFGSSFSSDPFNFNSQNGVNKDEKDHLIERLYREISGLKAQLENMKTESQRVVLQLKGHVSELEADLAEQQHLRQQAADDCEFLRAELDELRRQREDTEKAQRSLSEIERKAQANEQRYSKLKEKYSELVQNHADLLRKNAEVTKQVSMARQAQVDLEREKKELEDSLERISDQGQRKTQEQLEVLESLKQELATSQRELQVLQGSLETSAQSEANWAAEFAELEKERDSLVSGAAHREEELSALRKELQDTQLKLASTEESMCQLAKDQRKMLLVGSRKAAEQVIQDALNQLEEPPLISCAGSADHLLSTVTSISSCIEQLEKSWSQYLACPEDISGLLHSITLLAHLTSDAIAHGATTCLRAPPEPADSLTEACKQYGRETLAYLASLEEEGSLENADSTAMRNCLSKIKAIGEELLPRGLDIKQEELGDLVDKEMAATSAAIETATARIEEMLSKSRAGDTGVKLEVNERILGCCTSLMQAIQVLIVASKDLQREIVESGRGTASPKEFYAKNSRWTEGLISASKAVGWGATVMVDAADLVVQGRGKFEELMVCSHEIAASTAQLVAASKVKADKDSPNLAQLQQASRGVNQATAGVVASTISGKSQIEETDNMDFSSMTLTQIKRQEMDSQVRVLELENELQKERQKLGELRKKHYELAGVAEGWEEGTEASPPTLQEVVTEKESQTNTPYVSVNPCYLSRVCYFPSHRPNPWSPRGSHTTAITQCRGHAHFQRLPPRHPFCLDPWISTASYGGWLGFLVLFFFFKFHSHSQLSQRAHPWGVSRAPQLWLQRWCCPGLSVLHLRLHTDQVLAHPVHAPGSGGAAEQLSSKSRRRVSAFPSSIPAESLCPPLQGRRQQKEGQEGSHSPVPVTRLKNLITCLNGAGEINNTTSLPETVREWSLSSGPSPLAQRRSVGVIPNSFLQTSALASSIGRSFHLLRNQTRKIRCNCSHQGRTLYLVCYPYLLLTSLKQQQPTKRCLEQSELQVLQSSSFCPATSAFKNQKKGQGAGLLLTWIPKQGDHLELLGQRKERTEPAAPTPFSHMPQALAALWTGGQRAHEQLARDGQPNSTFPLLDGPQHLSDLLILGKQRLPSLSIATHWWPSSTSEFLQPGRPLEHAXEGP
modifications: X: residue not identified in the source
notes: wild type full length HIP1 expressed in cells
B2: HIP1/deltaE: dominant negative mutant of HIP1 lacking the ENTH domain (SEQ ID NO: 4) (protein, listed as Homo sapiens)
chain: MFDYLECELNLFQTVFNSLDMSRSVSVTAAGQCRLAPLIQVILDCSHLYDYTVKLLFKLHSCLPADTLQGHRDRFMEQFTKLKDLFYRSSNLQYFKRLIQIPQLPENPPNFLRASALSEHISPVVVIPAEASSPDSEPVLEKDDLMDMDASQQNLFDNKFDDIFGSSFSSDPFNFNSQNGVNKDEKDHLIERLYREISGLKAQLENMKTESQRVVLQLKGHVSELEADLAEQQHLRQQAADDCEFLRAELDELRRQREDTEKAQRSLSEIERKAQANEQRYSKLKEKYSELVQNHADLLRKNAEVTKQVSMARQAQVDLEREKKELEDSLERISDQGQRKTQEQLEVLESLKQELATSQRELQVLQGSLETSAQSEANWAAEFAELEKERDSLVSGAAHREEELSALRKELQDTQLKLASTEESMCQLAKDQRKMLLVGSRKAAEQVIQDALNQLEEPPLISCAGSADHLLSTVTSISSCIEQLEKSWSQYLACPEDISGLLHSITLLAHLTSDAIAHGATTCLRAPPEPADSLTEACKQYGRETLAYLASLEEEGSLENADSTAMRNCLSKIKAIGEELLPRGLDIKQEELGDLVDKEMAATSAAIETATARIEEMLSKSRAGDTGVKLEVNERILGCCTSLMQAIQVLIVASKDLQREIVESGRGTASPKEFYAKNSRWTEGLISASKAVGWGATVMVDAADLVVQGRGKFEELMVCSHEIAASTAQLVAASKVKADKDSPNLAQLQQASRGVNQATAGVVASTISGKSQIEETDNMDFSSMTLTQIKRQEMDSQVRVLELENELQKERQKLGELRKKHYELAGVAEGWEEGTEASPPTLQEVVTEKESQTNTPYVSVNPCYLSRVCYFPSHRPNPWSPRGSHTTAITQCRGHAHFQRLPPRHPFCLDPWISTASYGGWLGFLVLFFFFKFHSHSQLSQRAHPWGVSRAPQLWLQRWCCPGLSVLHLRLHTDQVLAHPVHAPGSGGAAEQLSSKSRRRVSAFPSSIPAESLCPPLQGRRQQKEGQEGSHSPVPVTRLKNLITCLNGAGEINNTTSLPETVREWSLSSGPSPLAQRRSVGVIPNSFLQTSALASSIGRSFHLLRNQTRKIRCNCSHQGRTLYLVCYPYLLLTSLKQQQPTKRCLEQSELQVLQSSSFCPATSAFKNQKKGQGAGLLLTWIPKQGDHLELLGQRKERTEPAAPTPFSHMPQALAALWTGGQRAHEQLARDGQPNSTFPLLDGPQHLSDLLILGKQRLPSLSIATHWWPSSTSEFLQPGRPLEH

Test system: cellular survival
Assay: Effect of expression of HIP1 dominant negative mutant on cellular survival
Format: cell-based
Details: for induction of cell death: expression of construct
Text: The effect of expression of a HIP1 dominant negative mutant on cellular survival was next investigated. […] 39% of HIP1/DE-expressing cells and 50% of caspase 9-expressing cells were apoptotic. […] Expression of the endogenous HIP1, wild type HIP1, HIP1/DE and Caspase 9 was documented by Western blot analysis as shown in the bottom of FIG. 6b.

Row | Molecule | correction of HIP1 deltaE apoptosis (co-expression with HIP1 deltaE, FIG. 12 and 13) | induction of cell death (FIG. 6b) | apoptotic cells (cells expressing the construct, FIG. 6b) [%]
1 | B1 | correction of HIP1 deltaE apoptosis | did not induce cell death | 
2 | B2 |  | promoted cell death | 39
